Assay results published in the supplement of paper PMC9112550, “Optimization of the antimicrobial peptide Bac7 by deep mutational scanning” (BMC Biology, 2022).

System: Escherichia coli TOP10
Assay: shrunken log2 fold change of peptide-encoding DNA abundance (4.5 h post-induction vs induction); higher = less antimicrobial activity (less host growth inhibition)
Settings: time post-induction: 4.5 h; library: site-saturation at positions 5, 18, 19, 20
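Note: peptides expressed intracellularly from a pBAD plasmid library in pooled LB shake-flask culture, induced with 0.3% L-arabinose, DNA abundance read by NGS, three biological replicates, DESeq2 with apeglm shrinkage.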

Sequence | shrunken log2 fold change
RRIRCRPPRLPRPRPRPTSKPRP | 0.921
RRIRSRPPRLPRPRPRPNGCPRP | -0.0491
RRIRRRPPRLPRPRPRPQIWPRP | 0.279
RRIRYRPPRLPRPRPRPMCDPRP | -0.987
RRIRARPPRLPRPRPRPKEWPRP | 1.16
RRIRYRPPRLPRPRPRPFNHPRP | -0.732
RRIRARPPRLPRPRPRPTQYPRP | 0.116
RRIRKRPPRLPRPRPRPGMPPRP | 0.625
RRIRNRPPRLPRPRPRPSPTPRP | 0.156
RRIRDRPPRLPRPRPRPRDWPRP | 0.619
RRIRIRPPRLPRPRPRPCFDPRP | -0.493
RRIRLRPPRLPRPRPRPNIQPRP | -0.689
RRIRCRPPRLPRPRPRPRNCPRP | -0.288
RRIRCRPPRLPRPRPRPWQHPRP | -0.256
RRIRSRPPRLPRPRPRPNHYPRP | -0.789
RRIRNRPPRLPRPRPRPGHGPRP | -0.19
RRIRFRPPRLPRPRPRPPKVPRP | 0.0991
RRIRRRPPRLPRPRPRPMCWPRP | 0.0358
RRIRIRPPRLPRPRPRPYQRPRP | -0.12
RRIRERPPRLPRPRPRPRSAPRP | 0.25
RRIRWRPPRLPRPRPRPPITPRP | -0.173
RRIRERPPRLPRPRPRPRQAPRP | 0.0291
RRIRKRPPRLPRPRPRPNVDPRP | 0.17
RRIRGRPPRLPRPRPRPNWDPRP | 0.738
RRIRKRPPRLPRPRPRPVRNPRP | 0.308

Sequence | shrunken log2 fold change
RRIRFRPPRLPRPRPRPEAHPRP | 0.171
RRIRWRPPRLPRPRPRPCVFPRP | 0.309
RRIRERPPRLPRPRPRPWCSPRP | -0.177
RRIRGRPPRLPRPRPRPEFQPRP | 0.226
RRIRIRPPRLPRPRPRPDPAPRP | 0.0747
RRIRWRPPRLPRPRPRPAGEPRP | 0.432
RRIRTRPPRLPRPRPRPWQNPRP | -0.0181
RRIRKRPPRLPRPRPRPPKKPRP | 0.0439
RRIRVRPPRLPRPRPRPFKKPRP | -0.115
RRIRTRPPRLPRPRPRPRLHPRP | 0.0546
RRIRPRPPRLPRPRPRPFCFPRP | 0.337
RRIRIRPPRLPRPRPRPEWPPRP | 0.0836
RRIRYRPPRLPRPRPRPSKMPRP | -0.365
RRIRSRPPRLPRPRPRPRDGPRP | 1.5
RRIRYRPPRLPRPRPRPPQGPRP | -0.0838
RRIRIRPPRLPRPRPRPADCPRP | 0.035
RRIRLRPPRLPRPRPRPFPLPRP | -0.0787
RRIRDRPPRLPRPRPRPGKVPRP | -0.00262
RRIRTRPPRLPRPRPRPYTCPRP | -0.0764
RRIRTRPPRLPRPRPRPAENPRP | 0.0214
RRIRIRPPRLPRPRPRPHFMPRP | -0.685
RRIRIRPPRLPRPRPRPQRCPRP | -0.0109
RRIRCRPPRLPRPRPRPECRPRP | 0.0543
RRIRNRPPRLPRPRPRPEIKPRP | 0.101
RRIRARPPRLPRPRPRPVHAPRP | 0.768
